T1: GST fused to the APP cytosolic tail mutant FFE689-91AAA (UniProt P05067-4 649-695, FFE689-91AAA)
T1 construct: amyloid precursor protein (APP), cytosolic tail, residues 649-695; numbers count on: APP isoform 695; also called FFE689-9AAA; source: T7 express E. coli; clarified lysate loaded on glutathione-Sepharose 4B beads and washed
T1 chain (looked up): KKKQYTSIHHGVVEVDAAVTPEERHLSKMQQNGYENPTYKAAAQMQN

T2: His-tagged PTB domain of RABGAP1
T2 chain: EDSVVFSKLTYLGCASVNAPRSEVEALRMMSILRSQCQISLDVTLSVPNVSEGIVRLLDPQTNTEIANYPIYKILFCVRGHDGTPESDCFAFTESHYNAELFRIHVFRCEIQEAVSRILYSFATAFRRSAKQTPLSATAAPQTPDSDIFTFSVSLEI


Key:
[1] = target: T1, GST fused to the APP cytosolic tail …; assay: pull-down; GST-APP tail WT, tail mutants or GST only on glutathione-Sepharose beads, incubated overnight at 4 °C with pre-cleared HEK293T lysate; eluted with 1.5 M NaCl; eluates immunoblotted for the hits; N = 3; conditions: one partner purified
[2] = target: T2, His-tagged PTB domain of RABGAP1; assay: ITC; APP peptides titrated into about 100 μM His-PTB of RABGAP1 in 2.4 μl injections at 20 °C; 100 mM Tris pH 7.4, 300 mM NaCl, 1 mM TCEP; Nano ITC; three independent runs for the WT peptide; conditions: both partners purified

Binder | fold change of binding against the WT tail [1] | Kd [2] | stoichiometry N [2]
RABGAP1 (natural protein, also called GAPCenA; TBC1D11; source: endogenous, HEK293T lysate) not shown | ~3 fold |  | 
MQQNGYENPTYKFFEQMQN (peptide, UniProt P05067-4 677-695, looked up, amyloid precursor protein (APP), cytosolic tail from M677 (MQQ...); numbers count on: APP isoform 695; The peptide probably runs to the C-terminus of APP695 (residue 695); also called APPwt; WT APP peptide) [WT APP tail peptide starting from the MQQ sequence at position 677] |  | ~61 µM | 1
